Source: patent publication US20190016813A1 (APROGEN KIC, published 2019)
Substitutions are numbered along the chain they refer to. Names and notes keep the numbering of the source.

T1: human CD43 (JL-1 antigen) on cells (human, UniProt P16150 20-400)
T1 construct: also called leukosialin; sialophorin
T1 sequence: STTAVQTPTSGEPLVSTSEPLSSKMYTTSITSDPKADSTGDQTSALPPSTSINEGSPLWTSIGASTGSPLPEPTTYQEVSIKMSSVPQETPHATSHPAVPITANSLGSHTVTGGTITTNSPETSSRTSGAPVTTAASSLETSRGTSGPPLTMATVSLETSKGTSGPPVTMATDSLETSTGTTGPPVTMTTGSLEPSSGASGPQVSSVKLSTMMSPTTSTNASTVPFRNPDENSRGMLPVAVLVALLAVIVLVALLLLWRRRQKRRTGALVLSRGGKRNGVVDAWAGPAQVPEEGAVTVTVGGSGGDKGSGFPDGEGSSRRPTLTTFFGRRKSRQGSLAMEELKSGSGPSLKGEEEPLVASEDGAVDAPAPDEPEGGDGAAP

B1: mouse anti-CD43 monoclonal antibody (ART140 JL1) (antibody, human IgG1, kappa, V domains shown)
VH: EVQLQQSGPELVKPGASVKISCKASGYSIGGYFMNWVKQSHGKSPEWIGRINPNNGDSFYNQKFKGTATLTVDRSSDTVHMEVLSLTSEDSAVYYCGREGYYGGRGYALDYWGQGTSVTVSS
VL: DIQMTQTTSSLSASLGDRVTISCRTSQDISNYLNWYQQKPDGTVKLLIYNTSRLHSGVPSRFSGSGSGTDYSLTIRNLEQKDIATYFCQQSNMFPYTFGGGTKLEIKR
notes: also called mouse anti-JL-1 antibody; mJL-1
B2: humanized anti-CD43 antibody 257-10 (antibody, IgG1, V domains shown)
VH: QVQLVQSGAEVKKPGASVKVSCKASGYTFNGYFMNWVRQAPGQGLRWMGRINPNNGDSFYNQKFQGRVTMTRDTSTSTVYMEPSSLRSEDTAVYYCAREGYYGGRGYALDYWGQGTLVTVSS
VL: DTQMTQSPSSVSASVGDRVTITCRTSQDISNYLNWYQQKPGKAPKLLIYNTSRLHSGVPSRFSGSGSGTDFTLTISSLQPEDFATYYCQQSNMFPYTFGQGTKLEIKR
modifications: glycosylated in the light chain variable region (N50-T-S52 motif; Concanavalin A blot)
B3: modified humanized anti-CD43 antibody, light chain N50Q (antibody, V domains shown)
VH: B2 VH
VL: DTQMTQSPSSVSASVGDRVTITCRTSQDISNYLNWYQQKPGKAPKLLIYQTSRLHSGVPSRFSGSGSGTDFTLTISSLQPEDFATYYCQQSNMFPYTFGQGTKLEIK
B4: modified humanized anti-CD43 antibody, light chain N50A (antibody, V domains shown)
VH: B2 VH
VL: B3 VL with Q50A
notes: also called modified humanized antibody removing glycosylation
B5: humanized anti-CD43 antibody 456-D10 (antibody, V domains shown)
VH: B2 VH with R46E, W47R, P83L, S84P
VL: B2 VL with K39E
notes: tested as humanized IgG

Experiments:
[1] = target: T1, human CD43 (JL-1 antigen) on cells; assay: immunofluorescence on Molt-4 cells, antibody 50 ug/ml, no human serum
[2] = target: T1, human CD43 (JL-1 antigen) on cells; assay: staining of CEM7 cells, fluorescence intensity (FIG. 34)
[3] = target: T1, human CD43 (JL-1 antigen) on cells; assay: binding to CD43 positive CEM7 cells (FIG. 45)

| Binder | binding result [2] | binding result [3] | other results |
| --- | --- | --- | --- |
| B1 |  |  | binding result [1]: binds |
| B2 | binds |  |  |
| B3 |  | binds |  |
| B4 |  | binds |  |
| B5 | binds |  |  |
